B1: Prelamin-A/C (Homo sapiens), P02545 (parent)
chain: METPSQRRATRSGAQASSTPLSPTRITRLQEKEDLQELNDRLAVYIDRVRSLETENAGLRLRITESEEVVSREVSGIKAAYEAELGDARKTLDSVAKERARLQLELSKVREEFKELKARNTKKEGDLIAAQARLKDLEALLNSKEAALSTALSEKRTLEGELHDLRGQVAKLEAALGEAKKQLQDEMLRRVDAENRLQTMKEELDFQKNIYSEELRETKRRHETRLVEIDNGKQREFESRLADALQELRAQHEDQVEQYKKELEKTYSAKLDNARQSAERNSNLVGAAHEELQQSRIRIDSLSAQLSQLQKQLAAKEAKLRDLEDSLARERDTSRRLLAEKEREMAEMRARMQQQLDEYQELLDIKLALDMEIHAYRKLLEGEEERLRLSPSPTSQRSRGRASSHSSQTQGGGSVTKKRKLESTESRSSFSQHARTSGRVAVEEVDEEGKFVRLRNKSNEDQSMGNWQIKRQNGDDPLLTYRFPPKFTLKAGQVVTIWAAGAGATHSPPTDLVWKAQNTWGCGNSLRTALINSTGEEVAMRKLVRSVTVVEDDEDEDGDDLLHHHHGSHCSSSGDPAEYNLRSRTVLCGTCGQPADKASASGSGAQVGGPISSGSSASSVTVTRSYRSVGGSGGGSFGDNLVTRSYLLGNSSPRTQSPQNCSIM
partner: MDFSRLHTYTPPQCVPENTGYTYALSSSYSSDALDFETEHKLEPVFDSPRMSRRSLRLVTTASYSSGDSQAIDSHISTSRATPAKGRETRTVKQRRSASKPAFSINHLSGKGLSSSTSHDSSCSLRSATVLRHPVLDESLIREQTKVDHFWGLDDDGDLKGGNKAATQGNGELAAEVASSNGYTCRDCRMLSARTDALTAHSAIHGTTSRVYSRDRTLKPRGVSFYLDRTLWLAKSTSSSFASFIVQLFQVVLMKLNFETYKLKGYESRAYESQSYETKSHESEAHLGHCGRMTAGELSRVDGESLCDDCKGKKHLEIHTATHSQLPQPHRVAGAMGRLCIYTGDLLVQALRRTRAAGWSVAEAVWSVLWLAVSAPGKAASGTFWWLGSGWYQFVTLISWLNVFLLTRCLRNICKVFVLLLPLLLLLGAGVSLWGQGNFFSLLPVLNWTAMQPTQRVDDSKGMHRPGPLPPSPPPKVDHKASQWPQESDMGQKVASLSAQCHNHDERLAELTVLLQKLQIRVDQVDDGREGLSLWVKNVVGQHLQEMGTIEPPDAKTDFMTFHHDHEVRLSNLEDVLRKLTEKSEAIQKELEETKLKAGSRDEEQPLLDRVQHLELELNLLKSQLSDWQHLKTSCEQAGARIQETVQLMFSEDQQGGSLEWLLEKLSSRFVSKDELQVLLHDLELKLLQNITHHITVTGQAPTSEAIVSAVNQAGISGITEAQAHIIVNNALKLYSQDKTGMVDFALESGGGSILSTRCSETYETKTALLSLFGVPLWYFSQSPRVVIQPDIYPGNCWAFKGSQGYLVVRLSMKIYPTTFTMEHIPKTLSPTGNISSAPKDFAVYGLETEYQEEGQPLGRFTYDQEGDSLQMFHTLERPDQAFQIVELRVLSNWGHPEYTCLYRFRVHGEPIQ

Variants of: B1
Details: with sun1_mouse Sun1, Q9D666

effect of a mutation on the interaction | Variant
disrupting interaction | L530P
disrupting interaction | R527P
